We go through 1 molecule from US20090054344A1.

The target of the assay is αvβ3 integrin on C-PAE cells (bovine) (UniProt P80746). Briefly: C-PAE attachment to plates coated with 293-produced Tumstatin; 10 µg/ml peptide; competitor is the Tumstatin coat.
Sequence of αvβ3 integrin on C-PAE cells (bovine) (P80746 31-1048): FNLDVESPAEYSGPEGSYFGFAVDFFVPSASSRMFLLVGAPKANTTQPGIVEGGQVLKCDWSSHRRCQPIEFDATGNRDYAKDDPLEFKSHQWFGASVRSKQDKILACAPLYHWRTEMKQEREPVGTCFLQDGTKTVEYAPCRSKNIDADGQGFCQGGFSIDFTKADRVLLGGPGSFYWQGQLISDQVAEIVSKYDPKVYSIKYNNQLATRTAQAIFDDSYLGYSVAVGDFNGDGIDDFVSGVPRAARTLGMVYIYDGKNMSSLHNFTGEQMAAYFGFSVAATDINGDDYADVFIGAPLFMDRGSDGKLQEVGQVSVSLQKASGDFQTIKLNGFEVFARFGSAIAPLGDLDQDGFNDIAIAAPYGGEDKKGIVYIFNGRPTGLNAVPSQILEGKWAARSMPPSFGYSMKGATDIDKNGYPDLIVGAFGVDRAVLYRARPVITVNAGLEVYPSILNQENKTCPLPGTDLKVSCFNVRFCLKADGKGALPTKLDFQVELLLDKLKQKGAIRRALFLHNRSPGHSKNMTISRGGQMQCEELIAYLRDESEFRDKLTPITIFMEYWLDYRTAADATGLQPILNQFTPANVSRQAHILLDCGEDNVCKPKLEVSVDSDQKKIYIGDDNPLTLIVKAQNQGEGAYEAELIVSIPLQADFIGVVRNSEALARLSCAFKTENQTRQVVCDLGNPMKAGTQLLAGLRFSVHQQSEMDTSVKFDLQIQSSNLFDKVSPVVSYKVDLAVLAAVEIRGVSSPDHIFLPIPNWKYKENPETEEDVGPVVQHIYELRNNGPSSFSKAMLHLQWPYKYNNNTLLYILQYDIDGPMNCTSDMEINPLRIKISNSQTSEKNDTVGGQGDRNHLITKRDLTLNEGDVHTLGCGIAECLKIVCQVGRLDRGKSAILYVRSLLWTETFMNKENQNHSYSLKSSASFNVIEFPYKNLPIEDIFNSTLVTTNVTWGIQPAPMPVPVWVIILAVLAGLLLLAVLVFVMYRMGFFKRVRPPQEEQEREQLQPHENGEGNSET

Regarding LQRFTTMPFLFCNVNDVCNF [T3 peptide], the % inhibition of cell attachment stood at 46.4%.
